From patent US20210380703A1 (RIGEL PHARMACEUTICALS, published 2021)
Numbering of substitutions follows the chain as printed.

B1: 370_A02 (antibody, V domains shown)
VH: EVQLLESGGGLVQPGGSLRLSCAASGFTFDSYGMNWVRQAPGKGLEWVAGINYNGGYTGYADSVKGRFTISRDNSKNTLYLQMNSLRAEDTAVYYCARGANWHDTALDYWGQGTLVTVSS
VL: DIQMTQSPSSLSASVGDRVTITCRASQSIVTYLNWYQQKPGKAPKLVIYAATSRASGVPSRFSGSGSGTDFTLTISSLQPEDFATYYCQQSYDSPLTFGGGTKVEIK
notes: Group III
B2: 371_E06 (antibody, V domains shown)
VH: B1 VH with D30S, G33S, A49S, G59S
VL: B1 VL with V30S, V47L, A51V, R54L, A55H, D93E
notes: Group III
B3: 371_G11 (antibody, V domains shown)
VH: B1 VH with D30S, A49S, G50N, G55S, G59S
VL: B1 VL with V30L, T31S, L33V, V47L, R54L
notes: Group III
B4: 370_B12 (antibody, V domains shown)
VH: B1 VH with D30S, S31D, G33S, A49S, T58K
VL: B1 VL with V30L, T31S, L33V, A51T, D93E, S94T
notes: Group III
B5: 370_F03 (antibody, V domains shown)
VH: B1 VH with D30S, A49S, G50S, G55S, T58K, G59S
VL: B1 VL with V30L, T31S, L33V, V47L, D93E, S94N
notes: Group III
B6: 371_G09 (antibody, V domains shown)
VH: B1 VH with D30S, G33S, G50N
VL: B1 VL with V30L, T31S, Y92D, D93S, S94T
notes: Group III
B7: 371_H05 (antibody, V domains shown)
VH: B1 VH with D30S, A49S, G55S, T58K, G59S
VL: B1 VL with V30I, T31S, V47L, R54L, D93S, S94L
notes: Group III
B8: 371_B04 (antibody, V domains shown)
VH: B1 VH with D30S, G33S, A49S, T58K, G59S
VL: B1 VL with V30L, T31S, A51V, A55H
notes: Group III
B9: 370_H02 (antibody, V domains shown)
VH: B1 VH with G33S, A49S, G55S, G59S, A106H
VL: B1 VL with V30L, V47L, D93E
notes: Group III
B10: 370_B11 (antibody, V domains shown)
VH: B1 VH with G33S, A49S, G55S, G59S, A106H
VL: B1 VL with V30L, T31S, A55H, S91G, S94L
notes: Group III
B11: 371_H08 (antibody, V domains shown)
VH: B1 VH with D30S, G50S, T58K, A106H
VL: B1 VL with V30I, T31S, L33V, A51V, S94T
notes: Group III
B12: 371_C12 (antibody, V domains shown)
VH: B1 VH with D30S, G33S, G55S, T58K, G59S, A106H
VL: B1 VL with T31S, L33V, V47L, S94T
notes: Group III
B13: 371_B09 (antibody, V domains shown)
VH: B1 VH with D30S, G33S, G55S, A106H
VL: B1 VL with V30L, T31S, L33V, A51T, R54L, S94T
notes: Group III
B14: 371_D02 (antibody, V domains shown)
VH: B1 VH with S31D, G33S, T58K, G59S
VL: B1 VL with V47L
notes: Group III
B15: 370_D01 (antibody, V domains shown)
VH: B1 VH with D30S, G33S, A49S, G50S
VL: B1 VL with V30L, T31S, V47L, A55H, D93N, S94T
notes: Group III
B16: 371_G04 (antibody, V domains shown)
VH: B1 VH with G33S, A49S, T58K, G59S
VL: B1 VL with V30L, T31S, V47L, R54L, A55H, D93E
notes: Group III
B17: 371_H04 (antibody, V domains shown)
VH: B1 VH with D30S, A49S, G50N
VL: B1 VL with V30L, V47L, D93N
notes: Group III
B18: 370_H07 (antibody, V domains shown)
VH: B1 VH with D30S, G33S, T58K, G59S
VL: B1 VL with V30L, T31S, V47L, R54L, Y92D, D93S
notes: Group III
B19: 371_C01 (antibody, V domains shown)
VH: B1 VH with D30S, N35H, A49S, G50S, A106H
VL: B1 VL with T31S, V47L, A55H, S94N
notes: Group III
B20: 371_H10 (antibody, V domains shown)
VH: B1 VH with D30S, G33S, G55S, T58K, G59S, A106H
VL: B1 VL with V30S, V47L, A55H, D93E, S94N
notes: Group III
B21: 371_E07 (antibody, V domains shown)
VH: B1 VH with G33S, G59S
VL: B1 VL with V30I, T31S, V47L, R54L, D93E
notes: Group III
B22: 371_A10 (antibody, V domains shown)
VH: B1 VH with S31D, G33S, A49S, T58K
VL: B1 VL with T31S, D93E, S94N
notes: Group III
B23: 372_B02 (antibody, V domains shown)
VH: B1 VH with D30S, G33S, A49S, G55S, G59S
VL: B1 VL with V30L, T31S, L33V, V47L, A51V, R54L, D93E, S94T
notes: Group III
B24: 371_B12 (antibody, V domains shown)
VH: B1 VH with D30S, S31D, G33S, G55S, G59S
VL: B1 VL with A55H, D93N, S94N
notes: Group III
B25: 371_F11 (antibody, V domains shown)
VH: B1 VH with D30S, G33S, A49S, G59S
VL: B1 VL with V30I, T31S, L33V, V47L, A51V, S94L
notes: Group III
B26: 371_C04 (antibody, V domains shown)
VH: B1 VH with A49S, G55S, T58K
VL: B1 VL with V30L, T31S, V47L, D93S, S94T
notes: Group III
B27: 371_F10 (antibody, V domains shown)
VH: B1 VH with A49S, G55S, G59S
VL: B1 VL with V30S, T31S, A51V, D93E
notes: Group III
B28: 370_B03 (antibody, V domains shown)
VH: B1 VH with D30S, G33S, G50N
VL: B1 VL with V30L, T31S, D93N, S94N
notes: Group III
B29: 372_C06 (antibody, V domains shown)
VH: B1 VH with D30S, S31D, G33S, A49S, G59S
VL: B1 VL with T31S, L33V, V47L, D93S
notes: Group III
B30: 371_D04 (antibody, V domains shown)
VH: B1 VH with S31D, G33S, A106H
VL: B1 VL with T31S, L33V, V47L, R54L, D93E, S94N
notes: Group III
B31: 371_E10 (antibody, V domains shown)
VH: B1 VH with G33S, G59S
VL: B1 VL with V30S, V47L, A51V, D93N
notes: Group III
B32: 370_D05 (antibody, V domains shown)
VH: B1 VH with S31D, G33S, A49S, G50N, T58K
VL: B1 VL with V30I, A55H, S94T
notes: Group III
B33: 371_G02 (antibody, V domains shown)
VH: B1 VH with G50S, G59S, A106H
VL: B1 VL with V30L, T31S, V47L, S94L
notes: Group III
B34: 371_H06 (antibody, V domains shown)
VH: B1 VH with A49S, G59S
VL: B1 VL with V30S, T31S, A51V, S94L
notes: Group III
B35: 371_B03 (antibody, V domains shown)
VH: B1 VH with D30S, N35H, G50S, G59S, A106H
VL: B1 VL with V30L, T31S, L33V, V47L, A51T, S94N
notes: Group III
B36: 371_C05 (antibody, V domains shown)
VH: B1 VH with D30S, S31D, N35H, G50N
VL: B1 VL with V30L, T31S, V47L
notes: Group III

Target: T1, biotinylated goat anti-human kappa light chain
T1 construct: positive control of the ELISA
Assay: ELISA, positive control
Method in brief: (§1)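 Binding signal was read by ELISA after ACVR2A-specific monoclonal antibodies were tested against human ACVR2A and mouse ACVR2A, with human Fc as the negative control.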
Note: test concentration or dose not given here.

| optical density | Binder |
| --- | --- |
| 3.62 OD | B1 |
| 3.44 OD | B2 |
| 3.67 OD | B3 |
| 3.56 OD | B4 |
| 3.3 OD | B5 |
| 3.58 OD | B6 |
| 3.27 OD | B7 |
| 2.27 OD | B8 |
| 3.67 OD | B9 |
| 3.69 OD | B10 |
| 3.47 OD | B11 |
| 3.68 OD | B12 |
| 2.7 OD | B13 |
| 3.58 OD | B14 |
| 3.66 OD | B15 |
| 3.54 OD | B16 |
| 3.58 OD | B17 |
| 3.51 OD | B18 |

| optical density | Binder |
| --- | --- |
| 3.59 OD | B19 |
| 3.55 OD | B20 |
| 3.44 OD | B21 |
| 3.48 OD | B22 |
| 3.67 OD | B23 |
| 3.48 OD | B24 |
| 3.68 OD | B25 |
| 3.45 OD | B26 |
| 3.53 OD | B27 |
| 3.61 OD | B28 |
| 3.49 OD | B29 |
| 3.3 OD | B30 |
| 3.49 OD | B31 |
| 3.49 OD | B32 |
| 3.67 OD | B33 |
| 3.7 OD | B34 |
| 3.48 OD | B35 |
| 3.08 OD | B36 |

Target: T2, mouse ACVR2A (mouse, UniProt P27038 20-135, limits assumed)
T2 construct: coated antigen of the initial ELISA
Assay: ELISA
Method in brief: as §1

T2 sequence (P27038 20-135 limits assumed): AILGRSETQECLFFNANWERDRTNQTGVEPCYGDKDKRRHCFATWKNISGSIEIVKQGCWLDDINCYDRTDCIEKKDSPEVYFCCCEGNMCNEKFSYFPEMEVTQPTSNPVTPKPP

| optical density | Binder |
| --- | --- |
| 2.91 OD | B1 |
| 3.03 OD | B2 |
| 2.75 OD | B3 |
| 3.08 OD | B4 |
| 1.25 OD | B5 |
| 3.07 OD | B6 |
| 1.25 OD | B7 |
| 3.13 OD | B8 |
| 3.39 OD | B9 |
| 2.45 OD | B10 |
| 2.04 OD | B11 |
| 3.2 OD | B12 |
| 0.827 OD | B13 |
| 2.99 OD | B14 |
| 3.17 OD | B15 |
| 3.58 OD | B16 |
| 3.51 OD | B17 |
| 3.25 OD | B18 |

| optical density | Binder |
| --- | --- |
| 2.27 OD | B19 |
| 2.55 OD | B20 |
| 3.35 OD | B21 |
| 2.78 OD | B22 |
| 3.51 OD | B23 |
| 2.4 OD | B24 |
| 3.25 OD | B25 |
| 2.25 OD | B26 |
| 2.31 OD | B27 |
| 3.57 OD | B28 |
| 3.54 OD | B29 |
| 1.29 OD | B30 |
| 3.05 OD | B31 |
| 3.12 OD | B32 |
| 3.06 OD | B33 |
| 3.11 OD | B34 |
| 1.94 OD | B35 |
| 1.35 OD | B36 |

Target: T3, human ACVR2A (human, UniProt P27037 20-135, limits assumed)
T3 construct: coated antigen of the initial ELISA; also called activin receptor, type II A
Assay: ELISA
Method in brief: as §1

T3 sequence (P27037 20-135 limits assumed): as the sequence (P27038 20-135 limits assumed) above, with R20K, I73V counted along it

| optical density | Binder |
| --- | --- |
| 2.9 OD | B1 |
| 3 OD | B2 |
| 2.84 OD | B3 |
| 2.92 OD | B4 |
| 1.14 OD | B5 |
| 2.75 OD | B6 |
| 1.2 OD | B7 |
| 2.46 OD | B8 |
| 3.3 OD | B9 |
| 2.08 OD | B10 |
| 1.66 OD | B11 |
| 3.1 OD | B12 |
| 0.825 OD | B13 |
| 2.94 OD | B14 |
| 3.14 OD | B15 |
| 3.62 OD | B16 |
| 3.26 OD | B17 |
| 3 OD | B18 |

| optical density | Binder |
| --- | --- |
| 2 OD | B19 |
| 2.19 OD | B20 |
| 3.09 OD | B21 |
| 2.81 OD | B22 |
| 3.17 OD | B23 |
| 2.56 OD | B24 |
| 3.04 OD | B25 |
| 2.05 OD | B26 |
| 2.34 OD | B27 |
| 3.71 OD | B28 |
| 3.21 OD | B29 |
| 1.02 OD | B30 |
| 3.06 OD | B31 |
| 2.98 OD | B32 |
| 3.12 OD | B33 |
| 3.03 OD | B34 |
| 1.63 OD | B35 |
| 1.24 OD | B36 |
